# Assays:
# [1] = target: SARS-CoV-2 spike (RBD)-Fc (SARS-CoV-2) (UniProt P0DTC2); assay: ELISA; BPS Bioscience #79936 kit: plate coated with spike (RBD)-Fc, serial concentrations of test compound (200-12.5) added, kit completed as in its manual, luminescence
# ACE2-His (human) = ACE2-His (human) (UniProt Q9BYF1); assay: ELISA; BPS Bioscience #79936 kit: ACE2-His held on a 96-well nickel-coated plate, test compound (25-200 µg/mL) incubated 60 min at room temperature, then spike (RBD)-Fc added for 60 min, anti-mouse Fc-HRP, chemiluminescence
# Chain of ACE2-His (human) (Q9BYF1 18-805): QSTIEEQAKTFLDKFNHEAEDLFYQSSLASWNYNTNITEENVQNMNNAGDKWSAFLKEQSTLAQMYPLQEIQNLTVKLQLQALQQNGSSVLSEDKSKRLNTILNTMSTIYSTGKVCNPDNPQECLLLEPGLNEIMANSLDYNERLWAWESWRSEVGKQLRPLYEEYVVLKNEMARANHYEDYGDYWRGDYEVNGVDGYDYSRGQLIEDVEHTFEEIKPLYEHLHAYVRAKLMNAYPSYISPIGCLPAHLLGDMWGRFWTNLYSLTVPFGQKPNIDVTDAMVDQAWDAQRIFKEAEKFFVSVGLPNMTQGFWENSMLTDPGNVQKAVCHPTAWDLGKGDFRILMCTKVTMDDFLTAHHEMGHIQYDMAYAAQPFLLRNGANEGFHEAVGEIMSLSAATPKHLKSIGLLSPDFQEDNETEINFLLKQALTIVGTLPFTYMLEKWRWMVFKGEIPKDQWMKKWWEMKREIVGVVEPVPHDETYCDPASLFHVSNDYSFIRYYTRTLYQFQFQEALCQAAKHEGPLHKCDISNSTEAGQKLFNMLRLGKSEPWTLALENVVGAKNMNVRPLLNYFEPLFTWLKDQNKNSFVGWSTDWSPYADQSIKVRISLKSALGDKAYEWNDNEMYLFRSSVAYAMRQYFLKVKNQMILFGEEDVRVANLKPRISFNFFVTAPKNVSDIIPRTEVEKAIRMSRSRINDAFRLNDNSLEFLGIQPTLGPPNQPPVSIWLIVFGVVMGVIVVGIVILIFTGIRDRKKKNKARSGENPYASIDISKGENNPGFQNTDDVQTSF
substance,measurement,setting,value
bovine lactoferrin (natural protein),maximum percent inhibition (RBD neutralization),[1],94%
bovine lactoferrin (natural protein; other documents disagree on this pair),maximum percent inhibition of ACE2/spike at 200 mg concentration,ACE2-His (human),33%

# Reference: article PMC10518009
